Laboratory results taken from the supplement of paper PMC9170038.

Columns and labels:
MS2 coat protein [1] = test: apparent KD of MS2 coat protein; higher = weaker reporter binding; settings: Eterna round: R101
Method: (§1)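 RNA-MaP: designed FMN/MS2 RNA switches (84 nt design region) are transcribed on-chip within common flanks and titrated with SNAP-549-labelled MS2 coat protein (about 1-3000 nM) in 100 mM Tris pH 7.5, 80 mM KCl, 4 mM MgCl2, without or with 200 uM FMN. Median apparent KD per design; activation ratio = KD,OFF / KD,ON.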

MS2 coat protein [2] = test: apparent KD of MS2 coat protein; designed switch direction (-1 OFF switch, 1 ON switch): -1; higher = weaker reporter binding; settings: Eterna round: R98
Method: as §1

Sequence | apparent KD of MS2 coat protein (MS2 coat protein [1]; input ligand: FMN 200 uM) | apparent KD of MS2 coat protein (MS2 coat protein [1]; input ligand: none) | apparent KD of MS2 coat protein (MS2 coat protein [2]; input ligand: FMN 200 uM) | apparent KD of MS2 coat protein (MS2 coat protein [2]; input ligand: none)
AGAGCUGCUCAGAAGGAGGAUCACCCUUUCGAAAGAAAUACGGAGGCUGAAAAGCCUCCGAAAUCCUAGGAUAUGAGCAGCUCA [#SharedSequence - IExNG2: 3] (puzzle (switch architecture): Inverted Exclusion NG 2) | 7.43 nM | 791 nM |  | 
UCAUACAUGAGGAUCACCCAUGACAUGAGGAUCACCCAUGUGCAGGAUAUACGUGAUAUAAUAUAGUAGAAGGGCAGACUAUAA [LRO006_Exclusion NG 3] |  |  | 53 nM | 39.8 nM
UGUAUUAAUGGAGGAUAUCAAUAUCAAACAUGAGGAUCACCCAUGUUGAGGAUCACCCAUGUCCAUGAGAAGGCUGGCGUACGU [My 19th design] (puzzle (switch architecture): Same State NG 2) | 10.9 nM | 9.37 nM |  | 
CUGUGACGGAUCCAGAAUUACAACAUGAGGAUCACCCAUGUGCAGGAUAUCGGGUUGAUAGGCGCCGAGAAGGGUAUGAUCACG [Ex NG2 #37] |  |  | 77.3 nM | 80 nM
CGCUAUGACAUGAGGAUCACCCAUGUAUACAUGGGAAUGACGUAGGAUAUGCAGAAGAUUAAAGUGCAGAAGGACGGCUUUGCG [JR #DistanceClose #Static #NP SSNG3 Sub063] (puzzle (switch architecture): Same State NG 3) | 214 nM | 433 nM |  | 
AAAUAAAUUGAAGGAUAUCAGGGUGCACCUCAGUAAAACUGAGGUGCACCCUGAGAAGGUCGAGGAUCACCCGACCUAAAUAAA [#SharedSequence SLExNG1: 4-2] (puzzle (switch architecture): Small Loop Exclusion NG 1) | 8.37 nM | 7.63 nM |  | 
GCCAUCGCAUGAGGAUAUGCUCCCGUUUCGGGAGCAGAAGGCAUGUCAUAAGACAUGAGGAUCACCCAUGUAGUUAAGAUGGCA (puzzle (switch architecture): Same State NG 1) | 11.7 nM | 285 nM |  | 
CCUGCACCUCAAGGAUAUCCAGUCGAAACGACUGGAGAAGGUGAGGAUCACCCAUCUAGCCUGACGAAAGUCAGGCAUGCAGGA [#SharedSequence - ExNG1-5] (puzzle (switch architecture): Exclusion NG 1) | 848 nM |  |  | 
ACACGUCGUGAGAAGGAGGAUCACCCUUUCGAAAGAAAUAGCCACCGUGAAAACGGUGGCAGAUUUUAGGAUAUCACGACGUGA [#SharedSequence - IExNG2: 9] (puzzle (switch architecture): Inverted Exclusion NG 2) | 113 nM | 88.3 nM |  | 
CUAUAGAUAUGAGGAUAUGUAUAUCCAACAUGAGGAUCACCCAUGUUGAGGAUCACCCAUGUAAAGCAGAAGGCAUAUCUAUAG [#HighScoreProbStacks] (puzzle (switch architecture): Same State NG 2) | 16.6 nM | 21.5 nM |  | 
UCUUAAAUGAUCCUAUUUACCAACAUGAGGAUCACCCAUGUGCAGGAUAUGCUAAAGAUAAAUAAGCAGAAGGGCAAUAACCGC [JR_ExcNG3_Sub007] |  |  | 608 nM | 127 nM
AAAUGUACGAAGAAGGCUCUGCCACUGGCCGAGAGAGGAUAUUCACACAUGAGGAUCACCCAUGUCGAACAAAGUACACAGAGC [EternaBot1858] (puzzle (switch architecture): Inverted Same State NG 1) | 7.05 nM |  |  | 
GGACGUCACAUUAACAUGAGGAUCACCCAUGUCAAAAGACAUGAGGAUAUGGAUCCUAAUUGGAUCCAGAAGGCAUGGACGUCC [#HiddenHairpinInALoop - Fiskers NG3ss - 39] (puzzle (switch architecture): Same State NG 3) | 14.8 nM | 236 nM |  | 
CCUGCACUUCAAGGAUAUCCAGUCGAAACGACUGGAGAAGGUGAGGAUCACCCACCUAGCCUGACGAAAGUCAGGCAUGCAGGA [#SharedSequence - ExNG1-3] (puzzle (switch architecture): Exclusion NG 1) | 8.06 nM | 8.62 nM |  | 
AAACUGCCACAUGAGGAUCACCCAUGUAAAUAAAGUAUUUGAAGAAGGGCGAUAGCAAAGCUAUCGCAGGAUAUUCUCAGGCAG [#GuReductionToAU - jl-sng2-2.35] (puzzle (switch architecture): Inverted Same State NG 3) | 8.34 nM | 43.7 nM |  | 
AAAAGAACCCGAGGAUAUGCGAAAUCACGAAGAGCAGAAGGCGGCUACAUGUGGAUCCGAGGACAUGAGGAUCACCCAUGUACG [Iszaaatce] |  |  | 165 nM | 321 nM
AUGCCGUGCAGAGCGCAACGGCGUACAUGAGGAUCACCCAUGUAGGAUAUACUACACAAAGUGUAGUAGAAGGACAUGCGACUG [Ex NG2 #93] |  |  | 185 nM | 56.7 nM
AAUAAUUCUCAAGGAUAUGACUCCGAAACGGAGUCAGAAGGUGAGGAUCACCCACCUAGCUCAGCGUCGAAAGACGCUGAGCAA [#SharedSequence ExNG1 - 35] (puzzle (switch architecture): Exclusion NG 1) | 314 nM | 18.4 nM |  | 
GGUACUCAAAGAGUACCAAUACGAACAUGAGGAUCACCCAUGUAGGAUAUGCUACUCAAAGAGUAGCAGAAGGACAUGUGUAAA [OmeiMod 10 - Jieux - Exclusion NG 3] |  |  | 567 nM | 92.4 nM
UAAGUCGGAAGAUAAUAAUGAAUACAUGAGGAUCACCCAUGUAAGGAUAUGCAGUGGAAUACACUGCAGAAGGUACAAACCGAC [Exclusion NG 3/17-A2] |  |  | 24.6 nM | 15.2 nM
AGGAGAAAUGUAGGAUAUAUAUAUAUAUAUGGGCAAAGCGCAUAUAUAUAUAUAGAAGGACAUGAGGAUCACCCAUGUUUCCCU [#Lowering the energy 11] (puzzle (switch architecture): Small Loop Exclusion NG 1) | 10.9 nM | 10.8 nM |  | 
AAUAUAAAGAGCUGGCUUCUAAUAACAUGAGGAUCACCCAUGUAGGAUAUCAGCACGAUAAGUGCUGAGAAGGACAUCCAGCUC [Denovo 53] |  |  | 14.3 nM | 14.4 nM
AAAUAAACCUUAGGAUAUGACUCCGAAACGGAGUCAGAAGGGAGGAUCACCCUCUUCAGCUCAGCGUCGAAAGACGCUGAGCAA [#SharedSequence ExNG1 - 21] (puzzle (switch architecture): Exclusion NG 1) | 63.3 nM | 72.9 nM |  | 
GUGGUUGUCGUAGGAUAUGUAGGAUAUUCCUACAUGAGGAUCACCCAUGUUCGCAUGGAAGAAGGACAGAAGGACGAUGACCAG [salish99_SSNG2_011 #endbits investigation] (puzzle (switch architecture): Same State NG 2) | 9.85 nM | 855 nM |  | 
GAACUCACGGCAUGCAUAUAAGCACAUGAGGAUCACCCAUGUCAGGAUAUCCACGGUCGUGCUUCGGAGAAGGGACAUGAGGCG [Lainxe] |  |  | 48 nM | 51.7 nM
